From patent US20220356230A1
Values joined by “and” are separate entries in the source; they are usually repeats but may differ in a detail not shown here. Equal entries are not always repeated.

How the values were obtained:
[1] = biological target: SARS-CoV-2 Spike Protein (Accession number MN908947.3, amino acids 16-1211) on pseudotyped VSV VLPs (SARS-CoV-2) (UniProt P0DTC2)
[2] = biological target: VLPs expressing VSV only (negative binding control) (vesicular stomatitis virus)
[3] = biological target: Bt-MERS.hFc (mAb2664-L2) (MERS-CoV) (UniProt K9N5Q8); experiment: Luminex bead assay, supernatant
[4] = biological target: MERS.hFc (mAb2664-L1) (MERS-CoV) (UniProt K9N5Q8); experiment: Luminex bead assay, supernatant
[5] = biological target: MERS.mFc (mAb2663-L1) (MERS-CoV) (UniProt K9N5Q8); experiment: Luminex bead assay, supernatant
[6] = biological target: SARS-CoV-2 spike protein (S-wt, Wuhan-Hu-1, NCBI Accession Number MN908947.3) on VSV-SARS-CoV-2-S pseudoparticles (SARS-CoV-2) (UniProt P0DTC2); experiment: cell-based or functional assay

| Substance | Ratio VSV/Spike:VSV [1] | Antibody Binding Signal (RLU) [2] | Binding signal (MFI) [3] [MFI] | Binding signal (MFI) [4] [MFI] | Binding signal (MFI) [5] [MFI] | mAb neutralization potency (IC50 (M)) [6] [M] |
| --- | --- | --- | --- | --- | --- | --- |
| IgG1 Isotype Control (antibody) | 1 and 2 |  |  |  |  |  |
| mAb10933 (antibody) |  | 82 RLU and 29 RLU | 26 | 21 | 22 |  |
| mAb10934 (antibody) |  |  |  |  | 77 | 5.44e-11 |
| mAb10936 (antibody) |  |  | 32 | 26 | 32 | 1.11e-10 |
| mAb10987 (antibody) |  |  |  |  |  | 4.06e-11 |
